{"source": "FireProtDB (doi:10.1016/j.jmb.2003.11.050)", "proteins": {"B1": {"name": "Cold shock protein CspB wild type, P41016 (protein)", "chain": "MQRGKVKWFNNEKGYGFIEVEGGSDVFVHFTAIQGEGFKTLEEGQEVSFEIVQGNRGPQAANVVKL"}}, "details": "Bacillus caldolyticus; pH 7; 25 °C; GdnHCl; Fluorescence; sodium cacodylate 100 mM; reversible: yes; whole UniProt chain shown"}
{"protein": "B1", "values": [{"measurement": "denaturant m value", "result": 1.53, "unit": "kcal/mol/M"}, {"measurement": "denaturant midpoint (higher = more stable)", "result": 2.36, "unit": "M"}, {"measurement": "unfolding free energy", "result": 3.63, "unit": "kcal/mol"}]}
